System: C[C@H](NC(=O)[C@H](C)NC(=O)[C@H](CCCNC(=N)N)NC(=O)[C@H](CCCNC(=N)N)NC(=O)c1cc(F)ccc1O)C(N)=O
Test: purified protein, by the assay type
Settings: other: detailed kinetic analysis of substrate hydrolysis; pH 8.0; 25.0 °C
Protocol: The combinatorial tetrapeptide library thus obtained was used to assay the substrate specificity of bovine p-chymotrypsin as follows. A 1 μL aliquot of each library member in DMSO was diluted to 100 μL in one well of a black polystyrene 96-well plate with a solution containing 50 mM Tris-HCl pH 8.0, 100 mM NaCl, 20 mM CaCl2, 10 μM [Tb(EDTA)]+and 10 μM enzyme. The resulting mixture was allowed to react at 25° C. for 30 min. Hydrolysis was followed by observing the increase in fluorescence at 546 nm upon excitation at 250 nm.
To elucidate any cooperativity between subsites, a series of single substrates was synthesized and assayed with chymotrypsin. […] Peptide sequences were designed to compare the most reactive amino acid in each sublibrary (Arg) with an amino acid with moderate reactivity and neutral functionality (Ala). Alanine, a small, neutral amino acid, was included in the P4′ position in all peptides, providing extended backbone interactions to enhance turnover. The kinetic data obtained from single substrate hydrolysis were analyzed using the standard Michaelis-Menten equation.

bovine α-chymotrypsin (Bos taurus)
Km: 500 ± 100 µM
kcat: 2.2 ± 0.2 s⁻¹
kcat/Km: 4400 ± 1000 M⁻¹ s⁻¹

From US20050207981A1, “Compositions and methods for determining substrate specificity of hydrolytic enzymes” (The Regents of the University of California, priority 2003, published 2005)
